What was measured:
[1] = molecular target: T1, bacteriophage T4 helicase Dda, wild type (bacteriophage T4) (UniProt P32270)
T1 sequence: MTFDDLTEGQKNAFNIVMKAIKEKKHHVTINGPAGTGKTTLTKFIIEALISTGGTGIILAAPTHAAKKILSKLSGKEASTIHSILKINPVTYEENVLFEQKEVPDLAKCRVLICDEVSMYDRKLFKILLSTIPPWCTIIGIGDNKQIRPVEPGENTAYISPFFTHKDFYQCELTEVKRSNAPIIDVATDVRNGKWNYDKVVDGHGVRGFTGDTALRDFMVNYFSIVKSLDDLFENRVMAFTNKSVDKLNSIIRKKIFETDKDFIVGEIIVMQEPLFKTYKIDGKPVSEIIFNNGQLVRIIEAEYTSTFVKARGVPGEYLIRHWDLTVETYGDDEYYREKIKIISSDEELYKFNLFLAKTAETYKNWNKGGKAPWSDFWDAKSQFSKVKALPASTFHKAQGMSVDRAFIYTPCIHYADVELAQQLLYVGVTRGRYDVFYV

wild-type Dda = assay: Dda-dependent DNA unwinding assay with gp32 variants (fluorescein-quenched replication fork substrate, no annealing trap); type: biochemical, bacteriophage T4; conditions: 375 nM gp32 variant, 25 nM wild-type Dda, 25 nM substrate, 2.5 mM ATP, triplicate experiments; for Rate constant of product formation (single exponential fit): 5 mM Mg(OAc)2, pH 7.5, room temperature, fluorescein fluorescence; for Amplitude of the product formation curve (fluorescence): higher amplitude = more effective prevention of reannealing
Experimental: A partial duplex substrate mimicking a replication fork was prepared by mixing equimolar concentrations of the following oligonucleotides: loading strand - […]/36-FAM/, displaced strand - […], and leading strand - […] in 10 mM HEPES/1 mM EDTA. The sample was heated to 95°C for 5 min, followed by slowly cooling to room temperature. All concentrations are final, after mixing. ATP (2.5 mM), Mg(OAc)2 (5 mM) and gp32 (375 nM) in assay buffer (25 mM HEPES, pH 7.5, 10 mM KOAc, 0.1 mM EDTA, 2 mM β-mercaptoethanol, 1 mg/ml bovine serum albumin and 4 mM phosphoenol pyruvate) were mixed and added to wells in one row of a black 96-well plate. The reactions were initiated by adding 25 nM substrate, 25 nM wild-type Dda and 5 U/ml pyruvate kinase/lactate dehydrogenase in assay buffer with a multichannel pipette to the entire row simultaneously. Fluorescein fluorescence was measured 8 times per minute in a VICTOR Nivo Multimode Plate Reader (Perkin Elmer) at room temperature with excitation through a 480/30 nm bandpass filter and emission measured after a 530/30 nm bandpass filter.

[2] = molecular target: T2, bacteriophage T4 helicase Dda, wild type (bacteriophage T4, UniProt P32270 1-439); assay: SPR; SPR analysis 2: Biacore T200, 25°C; wild-type Dda/dT20 immobilised on an NTA chip as in SPR analysis 1; peptides injected, 2-fold dilution series, 100 μM to 0.78 μM; steady-state analysis; conditions: both partners purified
T2 construct: Dda, SF1B helicase of bacteriophage T4, wild type; also called wild-type Dda
T2 sequence (looked up): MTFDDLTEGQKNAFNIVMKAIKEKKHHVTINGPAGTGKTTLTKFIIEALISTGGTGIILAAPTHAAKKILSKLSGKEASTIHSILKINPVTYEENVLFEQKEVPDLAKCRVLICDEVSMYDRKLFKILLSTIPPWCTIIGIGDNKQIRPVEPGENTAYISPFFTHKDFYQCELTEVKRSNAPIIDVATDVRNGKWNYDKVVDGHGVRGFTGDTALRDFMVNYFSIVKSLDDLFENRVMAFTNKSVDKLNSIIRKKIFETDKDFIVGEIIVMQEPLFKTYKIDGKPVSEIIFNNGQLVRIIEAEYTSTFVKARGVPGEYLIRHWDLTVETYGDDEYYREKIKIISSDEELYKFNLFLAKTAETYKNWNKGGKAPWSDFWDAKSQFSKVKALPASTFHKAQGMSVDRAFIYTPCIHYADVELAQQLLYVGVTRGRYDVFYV

[3] = molecular target: T3, bacteriophage T4 helicase Dda, wild type (bacteriophage T4, UniProt P32270 1-439); assay: SPR; wild-type Dda bound to dT20
T3 chain: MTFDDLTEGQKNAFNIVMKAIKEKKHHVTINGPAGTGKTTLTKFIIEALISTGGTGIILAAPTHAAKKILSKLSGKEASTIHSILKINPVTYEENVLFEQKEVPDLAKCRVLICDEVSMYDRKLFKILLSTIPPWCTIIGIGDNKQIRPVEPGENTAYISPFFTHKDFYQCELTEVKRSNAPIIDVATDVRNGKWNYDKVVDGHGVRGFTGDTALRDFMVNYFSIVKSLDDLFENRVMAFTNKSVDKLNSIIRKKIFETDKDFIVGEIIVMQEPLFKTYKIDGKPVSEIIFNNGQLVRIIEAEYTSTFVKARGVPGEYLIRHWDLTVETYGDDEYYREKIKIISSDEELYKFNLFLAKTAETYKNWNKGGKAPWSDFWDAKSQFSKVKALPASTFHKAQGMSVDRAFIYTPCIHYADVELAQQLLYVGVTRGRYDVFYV

[4] = molecular target: T4, bacteriophage T4 helicase Dda, ATPase deficient mutant K38A (bacteriophage T4, UniProt P32270 1-439, K38A); assay: SPR; SPR analysis 1: Biacore 3000, 25°C; His-tagged Dda-K38A/dT20 immobilised on an NTA chip by capture-coupling (~5800 RU); peptides injected, 4-fold dilution series, maximum 100 μM; 20 mM Tris-acetate pH 8.0, 150 mM NaCl, 10 mM magnesium acetate, 3 mM potassium glutamate, 1 mM TCEP, 0.05% Tween20, 10% glycerol; steady-state fit, 1:1 model; conditions: both partners purified
T4 construct: Dda, SF1B helicase of bacteriophage T4, active site point mutant K38A; called His-tagged in SPR analysis 1; theoretical mass printed as 52 046 Da; also called Dda-K38A; Dda–K38A
T4 sequence: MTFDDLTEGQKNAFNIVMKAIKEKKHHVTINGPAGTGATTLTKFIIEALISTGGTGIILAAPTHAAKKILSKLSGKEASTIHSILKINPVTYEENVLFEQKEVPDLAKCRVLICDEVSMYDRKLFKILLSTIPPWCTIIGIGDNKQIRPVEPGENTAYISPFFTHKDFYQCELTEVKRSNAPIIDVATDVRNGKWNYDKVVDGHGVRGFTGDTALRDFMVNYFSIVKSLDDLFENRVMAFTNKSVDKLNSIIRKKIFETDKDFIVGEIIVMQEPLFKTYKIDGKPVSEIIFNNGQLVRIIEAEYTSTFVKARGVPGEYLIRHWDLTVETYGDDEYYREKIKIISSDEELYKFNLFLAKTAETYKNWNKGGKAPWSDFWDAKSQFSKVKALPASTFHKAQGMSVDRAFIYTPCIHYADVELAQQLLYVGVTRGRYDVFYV

B1: gp32-A (1–254), gp32 that lacks the C-terminal region (domain or fragment)
chain: MFKRKSTAELAAQMAKLNGNKGFSSEDKGEWKLKLDNAGNGQAVIRFLPSKNDEQAPFAILVNHGFKKNGKWYIETCSSTHGDYDSCPVCQYISKNDLYNTDNKEYSLVKRKTSYWANILVVKDPAAPENEGKVFKYRFGKKIWDKINAMIAVDVEMGETPVDVTCPWEGANFVLKVKQVSGFSNYDESKFLNQSAIPNIDDESFQKELFEQMVDLSEMTSKDKFKSFEELNTKFGQVMGTAVMGGAAATAAKK
[1]
  amplitude of the product formation curve (fluorescein fluorescence) in the Dda-dependent DNA unwinding assay without annealing trap; 375 nM gp32, 25 nM wild-type Dda, 25 nM substrate: 86000

B2: gp32-A: gp32 lacking the C-terminal region (residues 1–254) (protein)
chain: MFKRKSTAELAAQMAKLNGNKGFSSEDKGEWKLKLDNAGNGQAVIRFLPSKNDEQAPFAILVNHGFKKNGKWYIETCSSTHGDYDSCPVCQYISKNDLYNTDNKEYSLVKRKTSYWANILVVKDPAAPENEGKVFKYRFGKKIWDKINAMIAVDVEMGETPVDVTCPWEGANFVLKVKQVSGFSNYDESKFLNQSAIPNIDDESFQKELFEQMVDLSEMTSKDKFKSFEELNTKFGQVMGTAVMGGAAATAAKK
modifications: left off: 6xHis, N-terminal, state not stated
wild-type Dda
  Rate constant of product formation (single exponential fit): 0.021 s⁻¹
  Amplitude of the product formation curve (fluorescence): 86 000

B3: gp32 C-terminus peptide encompassing residues 248–270 (peptide)
peptide: AATAAKKADKVADDLDAFNVDDF
notes: also called gp32 C-terminal peptide; source: synthetic peptide
[2]
  binding result: binds

B4: A255E/L262A mutant of gp32 peptide 248–270 (peptide, UniProt P03695 248-270, looked up)
peptide: AATAAKKEDKVADDADAFNVDDF
notes: probably a synthetic peptide like those of SPR analysis 1; also called mutant peptide A255E/L262A
[3]
  Kd: 504 µM
[2]
  fold less binding than the wild-type peptide 248–270: ~10 fold

B5: V258E/F265A mutant of gp32 peptide 248–270 (peptide, UniProt P03695 248-270, looked up)
peptide: AATAAKKADKEADDLDAANVDDF
notes: probably a synthetic peptide like those of SPR analysis 1; also called mutant peptide V258E/F265A
[3]
  Kd: 492 µM
[2]
  fold less binding than the wild-type peptide 248–270: ~10 fold

B6: full-length gp32 variant A255E/L262A (natural protein)
chain: MFKRKSTAELAAQMAKLNGNKGFSSEDKGEWKLKLDNAGNGQAVIRFLPSKNDEQAPFAILVNHGFKKNGKWYIETCSSTHGDYDSCPVCQYISKNDLYNTDNKEYSLVKRKTSYWANILVVKDPAAPENEGKVFKYRFGKKIWDKINAMIAVDVEMGETPVDVTCPWEGANFVLKVKQVSGFSNYDESKFLNQSAIPNIDDESFQKELFEQMVDLSEMTSKDKFKSFEELNTKFGQVMGTAVMGGAAATAAKKEDKVADDADAFNVDDFNTKTEDDFMSSSSGSSSSADDTDLDDLLNDL
[1]
  amplitude of the product formation curve (fluorescein fluorescence) in the Dda-dependent DNA unwinding assay without annealing trap; 375 nM gp32, 25 nM wild-type Dda, 25 nM substrate: 130000

B7: gp32 A255E/L262A: full-length gp32 variant A255E/L262A designed to reduce gp32–Dda interactions (protein)
chain: MFKRKSTAELAAQMAKLNGNKGFSSEDKGEWKLKLDNAGNGQAVIRFLPSKNDEQAPFAILVNHGFKKNGKWYIETCSSTHGDYDSCPVCQYISKNDLYNTDNKEYSLVKRKTSYWANILVVKDPAAPENEGKVFKYRFGKKIWDKINAMIAVDVEMGETPVDVTCPWEGANFVLKVKQVSGFSNYDESKFLNQSAIPNIDDESFQKELFEQMVDLSEMTSKDKFKSFEELNTKFGQVMGTAVMGGAAATAAKKEDKVADDADAFNVDDFNTKTEDDFMSSSSGSSSSADDTDLDDLLNDL
modifications: left off: 6xHis, N-terminal, state not stated
wild-type Dda
  Rate constant of product formation (single exponential fit): 0.023 s⁻¹
  Amplitude of the product formation curve (fluorescence): 130 000

B8: gp32 V258E/F265A: full-length gp32 variant V258E/F265A designed to reduce gp32–Dda interactions (protein)
chain: MFKRKSTAELAAQMAKLNGNKGFSSEDKGEWKLKLDNAGNGQAVIRFLPSKNDEQAPFAILVNHGFKKNGKWYIETCSSTHGDYDSCPVCQYISKNDLYNTDNKEYSLVKRKTSYWANILVVKDPAAPENEGKVFKYRFGKKIWDKINAMIAVDVEMGETPVDVTCPWEGANFVLKVKQVSGFSNYDESKFLNQSAIPNIDDESFQKELFEQMVDLSEMTSKDKFKSFEELNTKFGQVMGTAVMGGAAATAAKKADKEADDLDAANVDDFNTKTEDDFMSSSSGSSSSADDTDLDDLLNDL
modifications: left off: 6xHis, N-terminal, state not stated
wild-type Dda
  Rate constant of product formation (single exponential fit): 0.026 s⁻¹
  Amplitude of the product formation curve (fluorescence): 87 000

B9: full-length gp32 variant V258E/F265A (natural protein)
chain: MFKRKSTAELAAQMAKLNGNKGFSSEDKGEWKLKLDNAGNGQAVIRFLPSKNDEQAPFAILVNHGFKKNGKWYIETCSSTHGDYDSCPVCQYISKNDLYNTDNKEYSLVKRKTSYWANILVVKDPAAPENEGKVFKYRFGKKIWDKINAMIAVDVEMGETPVDVTCPWEGANFVLKVKQVSGFSNYDESKFLNQSAIPNIDDESFQKELFEQMVDLSEMTSKDKFKSFEELNTKFGQVMGTAVMGGAAATAAKKADKEADDLDAANVDDFNTKTEDDFMSSSSGSSSSADDTDLDDLLNDL
[1]
  amplitude of the product formation curve (fluorescein fluorescence) in the Dda-dependent DNA unwinding assay without annealing trap; 375 nM gp32, 25 nM wild-type Dda, 25 nM substrate: 87000

## NTKTEDDFMSSSSGSSSSADDTDLDDLLNDL [gp32 C-terminal peptide 271–301]
[3]
  Kd: 178 µM

B10: gp32-B (21–301), gp32 that lacks the N-terminal region (domain or fragment)
chain: KGFSSEDKGEWKLKLDNAGNGQAVIRFLPSKNDEQAPFAILVNHGFKKNGKWYIETCSSTHGDYDSCPVCQYISKNDLYNTDNKEYSLVKRKTSYWANILVVKDPAAPENEGKVFKYRFGKKIWDKINAMIAVDVEMGETPVDVTCPWEGANFVLKVKQVSGFSNYDESKFLNQSAIPNIDDESFQKELFEQMVDLSEMTSKDKFKSFEELNTKFGQVMGTAVMGGAAATAAKKADKVADDLDAFNVDDFNTKTEDDFMSSSSGSSSSADDTDLDDLLNDL
[1]
  amplitude of the product formation curve (fluorescein fluorescence) in the Dda-dependent DNA unwinding assay without annealing trap; 375 nM gp32, 25 nM wild-type Dda, 25 nM substrate: 200000

B11: gp32-B: gp32 lacking the N-terminal region (residues 21–301) (protein)
chain: KGFSSEDKGEWKLKLDNAGNGQAVIRFLPSKNDEQAPFAILVNHGFKKNGKWYIETCSSTHGDYDSCPVCQYISKNDLYNTDNKEYSLVKRKTSYWANILVVKDPAAPENEGKVFKYRFGKKIWDKINAMIAVDVEMGETPVDVTCPWEGANFVLKVKQVSGFSNYDESKFLNQSAIPNIDDESFQKELFEQMVDLSEMTSKDKFKSFEELNTKFGQVMGTAVMGGAAATAAKKADKVADDLDAFNVDDFNTKTEDDFMSSSSGSSSSADDTDLDDLLNDL
modifications: left off: 6xHis, N-terminal, state not stated
wild-type Dda
  Rate constant of product formation (single exponential fit): 0.013 s⁻¹
  Amplitude of the product formation curve (fluorescence): 200 000

## AATAAKKADKVADDLDAFNVDDFNTKTEDDFMS (peptide, UniProt P03695 248-280, looked up, source: synthetic peptide) [gp32 C-terminal peptide 248–280]
[4]
  binding result: binds

## AATAAKKADKVADDLDAFNVDDFNT (peptide, UniProt P03695 248-272, looked up, source: synthetic peptide) [gp32 C-terminal peptide 248–272]
[4]
  binding result: binds
